Measured values taken from patent publication US20030200555.

Target: T1, coumarin-CO-REVNFEVEFR
T1 chain: REVNFEVEFR

B1: BACE 1, soluble (transmembrane domain and cytoplasmic extension excluded) human protein produced in a baculovirus expression system (protein)
chain: TQHGIRLPLRSGLGGAPLGLRLPRETDEEPEEPGRRGSFVEMVDNLRGKSGQGYYVEMTVGSPPQTLNILVDTGSSNFAVGAAPHPFLHRYYQRQLSSTYRDLRKGVYVPYTQGKWEGELGTDLVSIPHGPNVTVRANIAAITESDKFFINGSNWEGILGLAYAEIARPDDSLEPFFDSLVKQTHVPNLFSLQLCGAGFPLNQSEVLASVGGSMIIGGIDHSLYTGSLWYTPIRREWYYEVIIVRVEINGQDLKMDCKEYNYDKSIVDSGTTNLRLPKKVFEAAVKSIKAASSTEKFPDGFWLGEQLVCWQAGTTPWNIFPVISLYLMGEVTNQSFRITILPQQYLRPVEDVATSQDDCYKFAISQSSTGTVMGAVIMEGFYVVFDRARKRIGFAVSACHVHDEFRTAAVEGPFVTLDMEDCGYNIPQTDESTLMT
Question: With B1 as the protein, how does the Km read?
Answer: The Km of the substrate is greater than 100 µM and cannot be determined due to the limit of solubility of the substrate
